According to US20050238649A1:

Biological target: human HER2 (ErbB2) receptor (human) (UniProt P04626)
Assay: cell-based or functional assay

4D5 Fab-MC-vc-PAB-MMAF, 1.5 MMAF/Ab
IC50, cell proliferation assay (CellTiter-Glo), BT474 cells: 0.04 µg ADC/ml
IC50, cell proliferation assay (CellTiter-Glo), SK-BR-3 cells: 0.02 µg ADC/ml

murine monoclonal antibody 4D5
maximum inhibition of cell proliferation of SK-BR-3 cells: 66%
